According to patent CN116925225A (CAS BLOOD HEMATONOSIS HOSPITAL INST OF BLOOD HEMATONOSIS CAS, dated 2023):

Target: T1, 人CD7 (human CD7 on the surface of Jurkat, Molt4, CCRF-CEM and Hut78 cells) (human, UniProt P09564 26-240)
T1 construct: whole, on cells; also called CD7抗原
T1 sequence (looked up): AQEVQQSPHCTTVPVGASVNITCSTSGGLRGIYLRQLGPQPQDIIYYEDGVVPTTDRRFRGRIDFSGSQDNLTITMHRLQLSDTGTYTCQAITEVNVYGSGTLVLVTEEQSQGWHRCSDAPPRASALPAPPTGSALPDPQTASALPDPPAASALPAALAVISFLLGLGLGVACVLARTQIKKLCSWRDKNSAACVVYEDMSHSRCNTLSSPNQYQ
Test: FACS, 0.15μg/100μl antibody on 2×10^5 Jurkat, Molt4, CEM and Hut78 cells (high in human CD7)

binding result: binds
B1: 单克隆抗体HIT7 (CD7-HIT7, mouse anti-human CD7 monoclonal antibody) (antibody, V domains shown)
VH: QVQLQESGPGLVKPSQTVSLTCTVTGISITTGNYRWSWIRQFPGNKLEWIGYIYYSGIITYNPSRTSRTTITRDISKNQFFLEMNSLTAEDTATYYCARERGIYYDSLWYFDVWGAGTTVTVSS
VL: DIVLTQSPASLAVSLGQRATISCRASKSVSASGYSYMHWYQQKPGQPPKLLIYLASNLESGVPARFSGSGSGTDFTLNIHPVEEEDAVTYYCQHSRELPYTFGGGTKLEIKR
notes: also called 本发明单克隆抗体; 鼠抗人CD7单克隆抗体
